Data on one substance can be found in PMC7140604.

The Kd is a measure of binding affinity in units of concentration. Usually koff stands for the rate constant with which the complex falls apart.

The target in test [1] is Ag85 (antigen 85 complex proteins) on the surface of live Mycobacterium abscessus cells (M. abscessus (endogenous in CIP104536T cells)). Nature of the test: single-molecule force spectroscopy (AFM); Fn-functionalized gold-coated AFM tip on live M. abscessus R cells adhered to a hydrophobic Petri dish; PBS; maximum force 250 pN, contact time 500 ms, retraction 1 um/s.
The target is the same in test [2]. The test is described as follows: single-cell force spectroscopy (AFM); single M. abscessus R cell on a polydopamine colloidal probe against Fn coupled to a gold surface; PBS; maximum force 250 pN, contact time 500 ms, approach and retraction 1 um/s.
For test [3] the target is unchanged. The test is described as follows: dynamic force spectroscopy (AFM single-molecule force spectroscopy at varied loading rate); Fn tip on live M. abscessus R cells; retraction speeds 0.5, 1, 2.5, 5 and 10 um/s; loading rates 100 to 100,000 pN/s; 13 cells; fit of the Friddle-Noy-de Yoreo model; Kd calculated from Feq and keff (7 pN/nm).

In test [1], “purified human plasma fibronectin (natural protein)” showed an adhesion (rupture) force of 75 pN and an adhesion frequency (fraction of adhesive force curves), without peptide of 30%. In addition, in test [2], the adhesion force stood at 77 pN and the adhesion frequency (fraction of adhesive force curves), without peptide turned out to be 30%. Further, in test [3], the dissociation constant Kd is 95 nM, the equilibrium force (Feq) is 34 pN and the koff is 33 s⁻¹.
